9 molecules from patent publication US20220267441A1 can be followed below.

Assay [1] deals with purified cynomolgus CD45 ectodomain (cynomolgus monkey). Nature of the assay: BLI (Octet Red96), antibody on anti-human Fc sensor, 300 nM cynomolgus CD45 ectodomain, 1:1 fit.
The target is the same in assay [2]. Put plainly: BLI (Octet Red96), Table 11; the sentence does not name the species of CD45. For orientation: BLI is a label-free optical method that tracks binding on a fibre tip over time.
For assay [3] the target is unchanged. Put plainly: BLI (Octet Red96), IgG on anti-human Fc sensor, 50 nM CD45 ectodomain, 1:1 fit.
The target of assay [4] is purified rhesus CD45 ectodomain (rhesus macaque). The description is as above.

Some results are limits rather than exact numbers.

Sequence of purified cynomolgus CD45 ectodomain (cynomolgus monkey) (chain, as listed by the source limits assumed, form in doubt): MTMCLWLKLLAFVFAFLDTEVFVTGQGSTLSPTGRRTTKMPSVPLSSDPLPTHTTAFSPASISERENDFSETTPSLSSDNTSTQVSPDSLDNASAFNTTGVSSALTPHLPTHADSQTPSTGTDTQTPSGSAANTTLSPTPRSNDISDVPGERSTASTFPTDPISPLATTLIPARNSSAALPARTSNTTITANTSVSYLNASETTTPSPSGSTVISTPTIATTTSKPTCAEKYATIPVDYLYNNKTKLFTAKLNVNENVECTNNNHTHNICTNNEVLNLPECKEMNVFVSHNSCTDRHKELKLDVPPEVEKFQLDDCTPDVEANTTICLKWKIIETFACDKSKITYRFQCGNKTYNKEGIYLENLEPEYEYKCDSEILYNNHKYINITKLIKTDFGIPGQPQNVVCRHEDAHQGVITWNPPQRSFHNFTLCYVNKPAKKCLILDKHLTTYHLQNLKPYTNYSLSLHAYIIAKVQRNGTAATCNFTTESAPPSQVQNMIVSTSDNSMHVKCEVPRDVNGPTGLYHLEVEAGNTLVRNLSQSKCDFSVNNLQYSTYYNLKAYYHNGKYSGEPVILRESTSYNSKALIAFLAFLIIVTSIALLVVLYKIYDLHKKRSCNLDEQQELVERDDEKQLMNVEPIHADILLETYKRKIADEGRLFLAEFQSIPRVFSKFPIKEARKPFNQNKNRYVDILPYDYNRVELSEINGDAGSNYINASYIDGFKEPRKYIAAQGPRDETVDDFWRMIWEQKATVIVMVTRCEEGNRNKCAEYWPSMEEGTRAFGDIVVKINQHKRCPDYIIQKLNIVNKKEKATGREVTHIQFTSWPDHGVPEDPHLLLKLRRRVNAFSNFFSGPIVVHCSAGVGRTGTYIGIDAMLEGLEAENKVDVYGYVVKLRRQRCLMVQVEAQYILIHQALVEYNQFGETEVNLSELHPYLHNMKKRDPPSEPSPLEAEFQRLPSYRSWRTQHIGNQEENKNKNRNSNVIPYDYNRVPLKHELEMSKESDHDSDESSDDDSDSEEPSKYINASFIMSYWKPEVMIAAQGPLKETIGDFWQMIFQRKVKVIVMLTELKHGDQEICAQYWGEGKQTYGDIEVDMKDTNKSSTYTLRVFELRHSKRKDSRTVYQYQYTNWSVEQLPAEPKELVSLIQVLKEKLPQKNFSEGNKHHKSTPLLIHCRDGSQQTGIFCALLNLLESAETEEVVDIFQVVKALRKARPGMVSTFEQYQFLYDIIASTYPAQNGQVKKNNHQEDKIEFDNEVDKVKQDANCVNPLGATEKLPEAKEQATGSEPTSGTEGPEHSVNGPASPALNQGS
Sequence of purified rhesus CD45 ectodomain (rhesus macaque) (chain, as listed by the source limits assumed, form in doubt): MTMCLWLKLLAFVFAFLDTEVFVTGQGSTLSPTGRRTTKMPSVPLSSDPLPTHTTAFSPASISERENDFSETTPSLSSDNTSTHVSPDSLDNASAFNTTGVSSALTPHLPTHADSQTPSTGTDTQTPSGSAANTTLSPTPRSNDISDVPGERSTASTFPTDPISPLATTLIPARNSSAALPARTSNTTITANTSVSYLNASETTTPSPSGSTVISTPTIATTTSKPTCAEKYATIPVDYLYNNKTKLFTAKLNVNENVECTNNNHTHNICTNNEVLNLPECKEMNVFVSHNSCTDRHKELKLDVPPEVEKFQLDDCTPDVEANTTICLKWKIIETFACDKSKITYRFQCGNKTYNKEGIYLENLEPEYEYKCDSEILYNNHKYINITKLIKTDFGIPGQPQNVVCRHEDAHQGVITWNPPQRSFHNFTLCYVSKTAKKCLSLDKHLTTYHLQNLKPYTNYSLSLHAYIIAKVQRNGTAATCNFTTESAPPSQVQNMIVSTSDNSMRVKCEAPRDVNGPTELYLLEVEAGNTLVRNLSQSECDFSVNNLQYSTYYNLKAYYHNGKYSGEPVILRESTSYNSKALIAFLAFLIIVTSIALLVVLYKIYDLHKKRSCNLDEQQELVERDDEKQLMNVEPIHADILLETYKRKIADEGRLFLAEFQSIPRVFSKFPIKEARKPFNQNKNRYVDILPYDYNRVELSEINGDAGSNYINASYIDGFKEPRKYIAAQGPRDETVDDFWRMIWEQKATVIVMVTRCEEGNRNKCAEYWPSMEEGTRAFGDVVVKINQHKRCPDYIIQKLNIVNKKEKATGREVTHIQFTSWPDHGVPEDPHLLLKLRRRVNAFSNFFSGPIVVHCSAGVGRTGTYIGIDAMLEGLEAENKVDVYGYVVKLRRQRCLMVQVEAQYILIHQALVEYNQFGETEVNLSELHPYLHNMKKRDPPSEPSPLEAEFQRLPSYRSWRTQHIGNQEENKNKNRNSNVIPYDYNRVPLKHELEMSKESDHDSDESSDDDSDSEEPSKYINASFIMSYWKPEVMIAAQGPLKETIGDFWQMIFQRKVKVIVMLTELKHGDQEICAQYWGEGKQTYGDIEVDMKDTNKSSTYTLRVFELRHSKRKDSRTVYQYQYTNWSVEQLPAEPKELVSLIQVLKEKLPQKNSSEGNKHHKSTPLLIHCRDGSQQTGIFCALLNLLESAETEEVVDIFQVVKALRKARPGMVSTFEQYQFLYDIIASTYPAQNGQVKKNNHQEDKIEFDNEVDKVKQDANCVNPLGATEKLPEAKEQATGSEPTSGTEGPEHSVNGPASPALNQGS

B1: Antibody A (AbA) (antibody, V domains shown)
VH: EVQLLESGGGLVQPGGSLRLSCAASGFTFNNYWMTWVRQAPGKGLEWVSSISSSGGSIYYPDRVKGRFTISRDNSKNTLYLQMNSLRAEDTAVYYCARDERWAGAMDAWGQGTTVTVSS
VL: DIQMTQSPSSLSASVGDRVTITCKASQNINKNLDWYQQKPGKAPKLLIYETNNLQTGVPSRFSGSGSGTDFTLTISSLQPEDFATYYCYQHNSRFTFGQGTKLEIK
The Kd is the concentration at which binding is half-saturated. Usually koff stands for the rate constant with which the complex falls apart. By kon is commonly meant the rate constant with which the complex forms. For B1, in assay [1], the Kd was determined as 34.1 nM, the koff turned out to be 0.000322 s⁻¹ and the kon was found to be 9440 M⁻¹ s⁻¹.

B2: Antibody C (AbC) (antibody, IgG1, V domains shown)
VH: EVQLVESGGGLVQPGGSLRLSCAASGFTFNNYWMTWVRQAPGKGLEWVSSISSSGGSIYYPDSVKDRFTISRDNAKNSLYLQMNSLRAEDMAVYYCARLYYYDGGGDAWGQGTLVTVSS
VL: GIQMTQSPSSLSASVGDRVTITCKASQDINKYLDWYQQKPGKAPKLLIYNTNNLHTGIPSRFSGSGSGTDYTLTISSLQPEDFATYYCLQHISRWTFGGGTKVEIK
As to B2, in assay [1], the Kd is 25.3 nM, the koff came to 0.000282 s⁻¹ and the kon worked out at 11100 M⁻¹ s⁻¹. In addition, the fold improved affinity over the parent clone C in assay [2] is over 4 fold.

B3: Antibody B (AbB) (antibody, IgG1, V domains shown)
VH: EVQLVESGGGLVQPGGSLRLSCAASGFTFTNFWMAWIRQAPGKGLEWVASISSSGGSIYYPDSVKDRFTISRDNSKNTLYLQMNSLRAEDTAVYYCVKFHHYSGGGDAWGQGTLVTVSS
VL: DIQMTQSPSSLSASVGDRVTITCKASQNINKYLDWYQQKPGKAPKLLIHYTNNLHTGIPSRFSGSGSGTDYTLTISSLQPEDFATYYCLQHSSRWTFGGGTKVEIK
In assay [1], B3 gave a Kd of 51.5 nM, a koff of 0.00042 s⁻¹ and a kon of 8160 M⁻¹ s⁻¹.

B4: Antibody 2 (Ab2) (antibody, V domains shown)
VH: EVQLVESGGGLVQPGGSLRLSCAASGFTFEAYSMNWVRQAPGKGLEWVSYISLSGATIHYADSVKGRFTISRDNAKNSLYLQMNSLRAEDTAVYYCARGGQYYYDSSDYGEVAFDIWGQGTMVTVSS
VL: DIVMTQSPLSLPVTPGEPASISCRSSQSLVSNGYNYLDWYLQKPGQSPQLLIYFGSSRASGVPDRFSGSGSGTDFTLKISRVEAEDVGVYYCMQRRRTPWSFGGGTKVEIK
In assay [3], B4 came in with a Kd of 1.08 nM, an off-rate constant (koff) of 0.000129 s⁻¹ and a kon of 119000 M⁻¹ s⁻¹. In assay [4], this molecule returned a Kd of 1.42 nM, a koff of 0.000192 s⁻¹ and an on-rate constant (kon) of 135000 M⁻¹ s⁻¹.

B5: Antibody 7 (Ab7) (antibody, V domains shown)
VH: QVQLVESGGGLVKPGGSLRLSCAASGFTFGGYSMNWVRQAPGKGLEWVSYISISGATITYADSVKGRFTISRDNAKNSLYLQMNSLRAEDTAVYYCARGGQYYYDSSDYGEVAFDIWGQGTMVTVSS
VL: DIVMTQSPLSLPVTPGEPASISCRSSQSLVSSGYNYLDWYLQKPGQSPQLLIYFGSSRASGVPDRFSGSGSGTDFTLKISRVEAEDVGVYYCMQRRRTPPFTFGGGTKVEIK
Take B5: in assay [3], the dissociation constant Kd worked out at 4.24 nM, the koff turned out to be 0.000537 s⁻¹ and the kon came to 127000 M⁻¹ s⁻¹. In assay [4], this molecule displayed a Kd of 4.39 nM, a koff of 0.000544 s⁻¹ and a kon of 124000 M⁻¹ s⁻¹.

B6: Antibody 4 (Ab4) (antibody, V domains shown)
VH: EVQLVESGGGLVQPGGSLRLSCAASGFTFEAYSMNWVRQAPGKGLEWVSYISLSGATIHYADSVKGRFTISRDNAKNSLYLQMNSLRAEDTAVYYCARGGQYYYTSSDYGEVAFDIWGQGTMVTVSS
VL: DIVMTQSPLSLPVTPGEPASISCRSSQSLVSNGYNYLDWYLQKPGQSPQLLIYFGSSRASGVPDRFSGSGSGTDFTLKISRVEAEDVGVYYCMQRRRTPWSFGGGTKVEIK
On to B6, for which, in assay [3], the Kd amounted to 0.721 nM, the koff turned out to be 7.89e-05 s⁻¹ and the kon was 110000 M⁻¹ s⁻¹. In assay [4], this molecule registered a Kd of 0.867 nM, a koff of 0.000102 s⁻¹ and a kon of 118000 M⁻¹ s⁻¹.

B7: Antibody 6 (Ab6) (antibody, V domains shown)
VH: EVQLVESGGGLVQPGGSLRLSCAASGFTFEAYSMNWVRQAPGKGLEWVSYISLSGATIHYADSVKGRFTISRDNAKNSLYLQMNSLRAEDTAVYYCARGGQYYYTSSDYGEVAFDIWGQGTLVTVSS
VL: DIVLTQSPLSLPVTPGEPASISCRSSQSLVSSGYNYLDWYLQKPGQSPQLLIYFGSSRASGVPDRFSGSGSGTDFTLKISRVEAEDVGVYYCMQRRRTPWSFGGGTKVEIK
In assay [3], B7 had a dissociation constant (Kd) of 1.3 nM, a koff of 0.000154 s⁻¹ and a kon of 118000 M⁻¹ s⁻¹. In assay [4], the Kd was determined as 1.44 nM, the koff amounted to 0.000175 s⁻¹ and the kon was 122000 M⁻¹ s⁻¹.

B8: Antibody 5 (Ab5) (antibody, V domains shown)
VH: EVQLVESGGGLVQPGGSLRLSCAASGFTFEAYSMNWVRQAPGKGLEWVSYISLSGATIHYADSVKGRFTISRDNAKNSLYLQMNSLRAEDTAVYYCARGGQYYYTSSDYGEVAFDIWGQGTMVTVSS
VL: DIVMTQSPLSLPVTPGEPASISCRSSQSLVSSGYNYLDWYLQKPGQSPQLLIYFGSSRASGVPDRFSGSGSGTDFTLKISRVEAEDVGVYYCMQRRRTPWSFGGGTKVEIK
In assay [3], B8 yielded a Kd of 1.4 nM, a koff of 0.000164 s⁻¹ and a kon of 117000 M⁻¹ s⁻¹. Moreover, in assay [4], the Kd turned out to be 1.71 nM, the koff turned out to be 0.000193 s⁻¹ and the kon is 113000 M⁻¹ s⁻¹.

B9: Antibody 3 (Ab3) (antibody, V domains shown)
VH: QVQLVESGGGLVKPGGSLRLSCAASGFTFGGYSMNWVRQAPGKGLEWVSYISISGATITYADSVKGRFTISRDNAKNSLYLQMNSLRAEDTAVYYCARGGQYYYDSSDYGEVAFDIWGQGTMVTVSS
VL: DIVMTQSPLSLPVTPGEPASISCRSSQSLVSNGYNYLDWYLQKPGQSPQLLIYFGSSRASGVPDRFSGSGSGTDFTLKISRVEAEDVGVYYCMQRRRTPPFTFGGGTKVEIK
B9: in assay [3], the Kd turned out to be 1.61 nM, the koff amounted to 0.000192 s⁻¹ and the kon is 120000 M⁻¹ s⁻¹. In assay [4], this molecule gave a Kd of 1.65 nM, a koff of 0.000222 s⁻¹ and a kon of 135000 M⁻¹ s⁻¹.
